Tests used:
IpaH1.4 LRR domain = target: T1, IpaH1.4 LRR domain (S. flexneri, UniProt A0A0H2USG1 38-283); assay: ITC
T1 sequence: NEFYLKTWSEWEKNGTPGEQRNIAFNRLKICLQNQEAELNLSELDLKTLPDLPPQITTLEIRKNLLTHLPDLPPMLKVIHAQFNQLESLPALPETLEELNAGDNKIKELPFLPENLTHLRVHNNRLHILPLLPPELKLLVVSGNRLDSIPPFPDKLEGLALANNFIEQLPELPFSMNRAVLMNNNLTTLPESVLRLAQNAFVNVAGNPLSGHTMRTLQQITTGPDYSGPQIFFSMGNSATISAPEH

HOIP UBA domain = target: T2, HOIP UBA domain (human, UniProt Q96EP0 480-636); assay: ITC
T2 sequence: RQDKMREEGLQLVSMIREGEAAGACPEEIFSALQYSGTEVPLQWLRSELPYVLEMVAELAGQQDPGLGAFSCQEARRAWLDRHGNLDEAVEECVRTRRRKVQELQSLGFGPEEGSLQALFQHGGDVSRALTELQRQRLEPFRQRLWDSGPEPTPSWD

B1: HOIL-1L UBL domain (domain or fragment)
chain: QDIRLWVSVEDAQMHTVTIWLTVRPDMTVASLKDMVFLDYGFPPVLQQWVIGQRLARDQETLHSHGVRQNGDSAYLYLLSARN
For B1, which Kd (IpaH1.4 LRR domain) is on record?
The Kd was 10.7 µM.

What about the Kd (HOIP UBA domain) of the same binder?
The Kd was 3.9 ± 0.4 µM.
